From US11390653B2, “Amino acid-specific binder and selectively identifying an amino acid” (priority 2018, dated 2022)

Tests used:
Format in all cases: binding
[1] = test system: F1G2 peptide; experiment: yeast/peptide colorimetric pull-down assay; settings: yeast-displayed protein
Description: (§1) Incubation and wash steps were repeated.

[2] = test system: W1G2 peptide; settings: for KOFF Trp: from SPR dissociation curves; for Selectivity for Trp, Trp/Phe / Selectivity for Trp, Trp/Trp / Selectivity for Trp, Trp/Tyr: relative specificity factor, ratio of binding affinities; for Kd: steady state, peptide on surface, 0 to 50 μM protein, read-out: KD Trp
Description: (§2) With regard to surface plasmon resonance (SPR), SPR data was collected by loading a streptavidin chip with the target biotinylated peptides in each of the four channels, and then flowing the protein over the chip at each concentration for 180 seconds before washing with 50 mM Tris-HCl, pH 8.0, 300 mM NaCl, 1 mM DTT, 5% glycerol buffer for 180 seconds. […] The four channels were used such that the negative control peptide (A1G2) was in channel 1, F1G2 in channel 2, W1G2 in channel 3, and Y1G2 in channel 4. The negative control peptide channel was used as a baseline for subtraction, which accommodates both any non-specific binding and refractive index change. A steady state response at each concentration was plotted and fit to calculate the KD, while the resonance units vs. time was used to calculate a koff for each mutant protein with each peptide.
(§3) Regarding characterization of the ClpS mutant protein binding kinetics, for peptide sequencing via some recently proposed methods reagents can bind peptides affixed to a surface. Two A. tumefaciens ClpS2 protein variants (V2, described above, and V1) were expressed and purified from E. coli. […] The binding properties of each variant were analyzed using surface plasmon resonance (SPR).

[3] = test system: F1G2 peptide; experiment: SPR, peptide on streptavidin chip, ClpS2 variant protein in solution; settings: for specificity between N-terminal Phe and Trp, in words: from SPR binding data; for KOFF Phe: from SPR dissociation curves; for Selectivity for Phe, Phe/Phe / Selectivity for Phe, Phe/Trp / Selectivity for Phe, Phe/Tyr: relative specificity factor, ratio of binding affinities; for Kd: steady state, peptide on surface, 0 to 50 μM protein, read-out: KD Phe
Description: as §2, §3

[4] = test system: Y1G2 peptide; experiment: as above; settings: for KOFF Tyr: from SPR dissociation curves; for Selectivity for Tyr, Tyr/Phe / Selectivity for Tyr, Tyr/Trp / Selectivity for Tyr, Tyr/Tyr: relative specificity factor, ratio of binding affinities; for Kd: steady state, peptide on surface, 0 to 50 μM protein, read-out: KD Tyr
Description: as §2, §3

[5] = biological target: T1, His NAA peptide (Agrobacterium fabrum, UniProt Q8UD95); experiment: flow cytometry of yeast displaying ClpS proteins; set-up: factor Xa cleavage site (N); expressed in transfected cells
Description: (§4) After two rounds of MACs selection, the library was sorted by flow cytometry. […] A typical reaction contained 100 μL of cells (containing approximately 10^6 cells), 10 μL of peptide at a concentration between 10 nM to 10 μM, and 25 μL of a master mix containing 2 μL of an anti-myc antibody, 4 μL of the SAPE (streptavidin, R-phycoerythrin conjugate—1 mg/mL) and 19 μL of PBS/BSA for each sample.
(§5) Cells were washed with PBS/BSA and sorted using a FACS Aria cytometer and collected in 1 mL of SD-CAA media. The number of cells that bound the peptide improved with each round and were sorted with sequentially lower concentrations of peptide to increase the stringency of the selection. […]
(§6) With regard to directed evolution of ClpS, random mutagenesis and screening was used to select proteins with higher affinity binding to the target NAA. In subsequent steps, specific residues were determined from initial screens with a targeted mutagenesis step. […] Using FACS, we assessed the affinity of each mutant for the N-terminal amino acid on the target peptide based on which quadrant the fluorescent signal fell into as shown in FIG. 15. […] If there is also a high fluorescence signal along the x-axis (streptavidin-PE) then the peptide is presumably bound to the protein variant, and the signal will appear in Q2. […]

[6] = biological target: T2, Arg NAA peptide (Agrobacterium fabrum, UniProt Q8UD95); experiment: flow cytometry of yeast displaying ClpS proteins; set-up: factor Xa cleavage site (N); expressed in transfected cells
Description: as §4, §5, §6

[7] = biological target: T3, Ile NAA peptide (Agrobacterium fabrum, UniProt Q8UD95); experiment: yeast/peptide colorimetric pull-down assay
T3 construct: factor Xa cleavage site (N); expressed in transfected cells; host or cells: Saccharomyces cerevisiae EBY100, pCTCON2
Description: as §1

[8] = biological target: T4, Ala NAA peptide (Agrobacterium fabrum, UniProt Q8UD95); experiment: yeast/peptide colorimetric pull-down assay
T4 construct: factor Xa cleavage site (N); expressed in transfected cells; host or cells: Saccharomyces cerevisiae EBY100, pCTCON2
Description: as §1

[9] = test system: Leu NAA peptide; experiment: yeast/peptide colorimetric pull-down assay; settings: yeast-displayed protein
Description: as §1

[10] = biological target: T5, Lys NAA peptide (Agrobacterium fabrum, UniProt Q8UD95); experiment: yeast/peptide colorimetric pull-down assay; settings: high concentrations used in the assay
T5 construct: factor Xa cleavage site (N); expressed in transfected cells; host or cells: Saccharomyces cerevisiae EBY100, pCTCON2
Description: as §1

[11] = biological target: T6, Met NAA peptide (Agrobacterium fabrum, UniProt Q8UD95); experiment: yeast/peptide colorimetric pull-down assay; settings: high concentrations used in the assay
T6 construct: factor Xa cleavage site (N); expressed in transfected cells; host or cells: Saccharomyces cerevisiae EBY100, pCTCON2
Description: as §1

[12] = biological target: T7, Val NAA peptide (Agrobacterium fabrum, UniProt Q8UD95); experiment: yeast/peptide colorimetric pull-down assay
T7 construct: factor Xa cleavage site (N); expressed in transfected cells; host or cells: Saccharomyces cerevisiae EBY100, pCTCON2
Description: as §1

[13] = biological target: T8, full panel of 20 peptides containing different NAAs (Agrobacterium fabrum, UniProt Q8UD95); experiment: yeast/peptide colorimetric pull-down assay, full panel
T8 construct: factor Xa cleavage site (N); expressed in transfected cells; host or cells: Saccharomyces cerevisiae EBY100, pCTCON2
Description: as §1

[14] = biological target: T1, His NAA peptide; experiment: yeast/peptide colorimetric pull-down assay; set-up: factor Xa cleavage site (N); expressed in transfected cells; host or cells: Saccharomyces cerevisiae EBY100, pCTCON2; settings: high concentrations used in the assay
Description: as §1

[15] = biological target: T2, Arg NAA peptide; experiment: yeast/peptide colorimetric pull-down assay; set-up: factor Xa cleavage site (N); expressed in transfected cells; host or cells: Saccharomyces cerevisiae EBY100, pCTCON2; settings: high concentrations used in the assay
Description: as §1

Molecule: A. tumefaciens ClpS2 [Variant V3, A. tumefaciens ClpS2 [Cys34 Ser35 Trp36]]
- affinity for F1G2 peptide compared to wild-type [1]: increased affinity
- selectivity towards F1G2 peptide compared to other NAAs [1]: higher selectivity

B1: A. tumefaciens ClpS2 [Pro34 Met35 Ser36] (protein, listed as Escherichia coli)
chain: SDSPVDLKPKPKVKPKLERPKLYKVMLLNDDYTPMSFVTVVLKAVFRMSEDTGRRVMMTAHRFGSAVVVVCERDIAETKAKEATDLGKEAGFPLMFTTEPEE
notes: ClpS2 variant, native residues 34-36 ProArgGlu mutated to ProMetSer
- KOFF Trp [2]: 0.76 s⁻¹
- affinity for N-terminal Trp relative to wild-type, in words ([2]; in vitro surface binding assays / SPR): little change
- Selectivity for Trp, Trp/Phe [2]: 7.28
- Selectivity for Trp, Trp/Trp [2]: 1.0
- Selectivity for Trp, Trp/Tyr [2]: 1.13
- Kd [2]: 13.1 ± 1.3 µM
- dissociation rate slowed over wild-type, Phe ([3]; SPR): 9.4 fold
- improvement in KD/affinity for Phe peptide compared to wild-type ([3]; SPR): 7.2 fold
- improvement in KD/affinity for Phe peptide compared to wild-type ([3]; SPR, listed as ProMetSer variant): 7 fold
- specificity between N-terminal Phe and Trp, in words [3]: more specific for N-terminal Trp than for Phe
- KOFF Phe [3]: 0.1 s⁻¹
- Selectivity for Phe, Phe/Phe [3]: 1.0
- Selectivity for Phe, Phe/Trp [3]: 0.14
- Selectivity for Phe, Phe/Tyr [3]: 0.16
- Kd [3]: 1.8 ± 0.4 µM
- improvement in affinity for Y1G2 compared to wild-type ([4]; SPR): 5.5 fold
- KOFF Tyr [4]: 0.5 s⁻¹
- Selectivity for Tyr, Tyr/Phe [4]: 6.43
- Selectivity for Tyr, Tyr/Trp [4]: 0.88
- Selectivity for Tyr, Tyr/Tyr [4]: 1.0
- Kd [4]: 11.6 ± 1.2 µM

B2: A. tumefaciens ClpS2 [Pro34 Arg35 Glu36] (protein)
chain: MGHHHHHHENLYFQGSDSPVDLKPKPKVKPKLERPKLYKVMLLNDDYTPREFVTVVLKAVFRMSEDTGRRVMMTAHRFGSAVVVVCERDIAETKAKEATDLGKEAGFPLMFTTEPEE
notes: wild-type Agrobacterium tumefaciens ClpS2, N-End Rule Pathway adaptor protein
- binding to His [5]: confirmed
- binding to Arg [6]: confirmed
- binding to Ile [7]: does bind
- binding to Ala [8]: lack of binding
- binding to Leu [9]: does not bind
- binding to Lys [10]: some binding activity
- binding to Met [11]: some binding activity
- binding to Val [12]: lack of binding
- binding to the remaining amino acids [13]: non-binding
- KOFF Trp [2]: 1.32 s⁻¹
- Selectivity for Trp, Trp/Phe [2]: 1.42
- Selectivity for Trp, Trp/Trp [2]: 1.0
- Selectivity for Trp, Trp/Tyr [2]: 0.29
- Kd [2]: 18.4 ± 0.4 µM
- binding to His [14]: some binding activity
- binding to Arg [15]: some binding activity
- specificity between N-terminal Phe and Trp, in words [3]: modest specificity for N-terminal Phe
- KOFF Phe [3]: 0.93 s⁻¹
- Selectivity for Phe, Phe/Phe [3]: 1.0
- Selectivity for Phe, Phe/Trp [3]: 0.71
- Selectivity for Phe, Phe/Tyr [3]: 0.21
- Kd [3]: 13 ± 0.6 µM
- KOFF Tyr [4]: 1.16 s⁻¹
- Selectivity for Tyr, Tyr/Phe [4]: 4.86
- Selectivity for Tyr, Tyr/Trp [4]: 3.43
- Selectivity for Tyr, Tyr/Tyr [4]: 1.0
- Kd [4]: 63 ± 4 µM
